This is an account of results in patent publication US20240059799A1 (Pfizer, published 2024).

As usually defined, the IC50 is the concentration that inhibits the measured activity by half.

First the molecules themselves.
B1: TL1A-0079 (antibody, IgG1, V domains shown)
VH: QVQLVQSGAEVKKPGASVKVSCKASGYDFTYYGISWVRQAPGQGLEWMGWISTYQGNTHYARMLQGRVTMTTDTSTRTAYMELRSLRSDDTAVYYCARENYYGSGAYRGGMDVWGQGTTVTVSS
VL: EIVLTQSPATLSLSPGERATLSCRASQSVSSYLAWYQQKPGQAPRLLIYDASNRATGIPARFSGSGSGTDFTLTISSLEPEDFAVYYCQQRSNWPWTFGQGTKVEIKR
notes: IgG1/kappa variant of TL1A-0002
B2: TL1A-0093 (antibody, IgG1, V domains shown)
VH: QVQLVQSGAEVKKPGASVKVSCKASGYDFTYYGISWVRQAPGQGLEWMGWISAYNANTHYAPSLQGRVTMTTDTSTRTAYMELRSLRSDDTAVYYCARENYYGSGAYRGGMDVWGQGTTVTVSS
VL: EIVLTQSPATLSLSPGERATLSCRASQSVSSYLAWYQQKPGQAPRLLIYDASNRATGIPARFSGSGSGTDFTLTISSLEPEDFAVYYCQQRSNWPWTFGQGTKVEIKR
notes: as for B1
B3: TL1A-0085 (antibody, IgG1, V domains shown)
VH: QVQLVQSGAEVKKPGASVKVSCKASGYDFTYYGISWVRQAPGQGLEWMGWASTYNGNTHYAQKLQGRVTMTTDTSTRTAYMELRSLRSDDTAVYYCARENYYGSGAYRGGMDVWGQGTTVTVSS
VL: EIVLTQSPATLSLSPGERATLSCRASQSVSSYLAWYQQKPGQAPRLLIYDASNRATGIPARFSGSGSGTDFTLTISSLEPEDFAVYYCQQRSNWPWTFGQGTKVEIKR
notes: as for B1
B4: TL1A-0080 (antibody, IgG1, V domains shown)
VH: QVQLVQSGAEVKKPGASVKVSCKASGYDFTYYGISWVRQAPGQGLEWMGWISTYGGNTHYARMLQGRVTMTTDTSTRTAYMELRSLRSDDTAVYYCARENYYGSGAYRGGMDVWGQGTTVTVSS
VL: EIVLTQSPATLSLSPGERATLSCRASQSVSSYLAWYQQKPGQAPRLLIYDASNRATGIPARFSGSGSGTDFTLTISSLEPEDFAVYYCQQRSNWPWTFGQGTKVEIKR
notes: as for B1
B5: TL1A-0089 (antibody, IgG1, V domains shown)
VH: QVQLVQSGAEVKKPGASVKVSCKASGYDFTYYGISWVRQAPGQGLEWMGWISTYNTGTHYAQKLQGRVTMTTDTSTRTAYMELRSLRSDDTAVYYCARENYYGSGAYRGGMDVWGQGTTVTVSS
VL: EIVLTQSPATLSLSPGERATLSCRASQSVSSYLAWYQQKPGQAPRLLIYDASNRATGIPARFSGSGSGTDFTLTISSLEPEDFAVYYCQQRSNWPWTFGQGTKVEIKR
notes: as for B1
B6: TL1A-0081 (antibody, IgG1, V domains shown)
VH: QVQLVQSGAEVKKPGASVKVSCKASGYDFTYYGISWVRQAPGQGLEWMGWISAYNGNTHYARMLQGRVTMTTDTSTRTAYMELRSLRSDDTAVYYCARENYYGSGAYRGGMDVWGQGTTVTVSS
VL: EIVLTQSPATLSLSPGERATLSCRASQSVSSYLAWYQQKPGQAPRLLIYDASNRATGIPARFSGSGSGTDFTLTISSLEPEDFAVYYCQQRSNWPWTFGQGTKVEIKR
notes: as for B1
B7: TL1A-0088 (antibody, IgG1, V domains shown)
VH: QVQLVQSGAEVKKPGASVKVSCKASGYDFTYYGISWVRQAPGQGLEWMGWISTYGGNTHYAPSLQGRVTMTTDTSTRTAYMELRSLRSDDTAVYYCARENYYGSGAYRGGMDVWGQGTTVTVSS
VL: EIVLTQSPATLSLSPGERATLSCRASQSVSSYLAWYQQKPGQAPRLLIYDASNRATGIPARFSGSGSGTDFTLTISSLEPEDFAVYYCQQRSNWPWTFGQGTKVEIKR
notes: as for B1
B8: TL1A-0091 (antibody, IgG1, V domains shown)
VH: QVQLVQSGAEVKKPGASVKVSCKASGYDFTYYGISWVRQAPGQGLEWMGWISTYNTVTHYAQKLQGRVTMTTDTSTRTAYMELRSLRSDDTAVYYCARENYYGSGAYRGGMDVWGQGTTVTVSS
VL: EIVLTQSPATLSLSPGERATLSCRASQSVSSYLAWYQQKPGQAPRLLIYDASNRATGIPARFSGSGSGTDFTLTISSLEPEDFAVYYCQQRSNWPWTFGQGTKVEIKR
notes: as for B1
B9: TL1A-0082 (antibody, IgG1, V domains shown)
VH: QVQLVQSGAEVKKPGASVKVSCKASGYDFTYYGISWVRQAPGQGLEWMGWISAYNGNTHYAQKLQGRVTMTTDTSTRTAYMELRSLRSDDTAVYYCARENYYGSGAYRGGMDVWGQGTTVTVSS
VL: EIVLTQSPATLSLSPGERATLSCRASQSVSSYLAWYQQKPGQAPRLLIYDASNRATGIPARFSGSGSGTDFTLTISSLEPEDFAVYYCQQRSNWPWTFGQGTKVEIKR
notes: as for B1
B10: TL1A-0094 (antibody, IgG1, V domains shown)
VH: QVQLVQSGAEVKKPGASVKVSCKASGYDFTYYGISWVRQAPGQGLEWMGWISTYNGNTHYARMLQGRVTMTTDTSTRTAYMELRSLRSDDTAVYYCARESYYGSGAYRGGMDVWGQGTTVTVSS
VL: EIVLTQSPATLSLSPGERATLSCRASQSVSSYLAWYQQKPGQAPRLLIYDASNRATGIPARFSGSGSGTDFTLTISSLEPEDFAVYYCQQRSNWPWTFGQGTKVEIKR
notes: as for B1
B11: TL1A-0090 (antibody, IgG1, V domains shown)
VH: QVQLVQSGAEVKKPGASVKVSCKASGYDFTYYGISWVRQAPGQGLEWMGWISTYNTGTHYAPSLQGRVTMTTDTSTRTAYMELRSLRSDDTAVYYCARENYYGSGAYRGGMDVWGQGTTVTVSS
VL: EIVLTQSPATLSLSPGERATLSCRASQSVSSYLAWYQQKPGQAPRLLIYDASNRATGIPARFSGSGSGTDFTLTISSLEPEDFAVYYCQQRSNWPWTFGQGTKVEIKR
notes: as for B1
B12: TL1A-0083 (antibody, IgG1, V domains shown)
VH: QVQLVQSGAEVKKPGASVKVSCKASGYDFTYYGISWVRQAPGQGLEWMGWISTYGGNTHYAQKLQGRVTMTTDTSTRTAYMELRSLRSDDTAVYYCARENYYGSGAYRGGMDVWGQGTTVTVSS
VL: EIVLTQSPATLSLSPGERATLSCRASQSVSSYLAWYQQKPGQAPRLLIYDASNRATGIPARFSGSGSGTDFTLTISSLEPEDFAVYYCQQRSNWPWTFGQGTKVEIKR
notes: as for B1
B13: TL1A-0092 (antibody, IgG1, V domains shown)
VH: QVQLVQSGAEVKKPGASVKVSCKASGYDFTYYGISWVRQAPGQGLEWMGWISTYNTVTHYAPSLQGRVTMTTDTSTRTAYMELRSLRSDDTAVYYCARENYYGSGAYRGGMDVWGQGTTVTVSS
VL: EIVLTQSPATLSLSPGERATLSCRASQSVSSYLAWYQQKPGQAPRLLIYDASNRATGIPARFSGSGSGTDFTLTISSLEPEDFAVYYCQQRSNWPWTFGQGTKVEIKR
notes: as for B1
B14: TL1A-0087 (antibody, IgG1, V domains shown)
VH: QVQLVQSGAEVKKPGASVKVSCKASGYDFTYYGISWVRQAPGQGLEWMGWISAYNGNTHYAPSLQGRVTMTTDTSTRTAYMELRSLRSDDTAVYYCARENYYGSGAYRGGMDVWGQGTTVTVSS
VL: EIVLTQSPATLSLSPGERATLSCRASQSVSSYLAWYQQKPGQAPRLLIYDASNRATGIPARFSGSGSGTDFTLTISSLEPEDFAVYYCQQRSNWPWTFGQGTKVEIKR
notes: as for B1
B15: TL1A-0086 (antibody, IgG1, V domains shown)
VH: QVQLVQSGAEVKKPGASVKVSCKASGYDFTYYGISWVRQAPGQGLEWMGWASTYNGNTHYAPSLQGRVTMTTDTSTRTAYMELRSLRSDDTAVYYCARENYYGSGAYRGGMDVWGQGTTVTVSS
VL: EIVLTQSPATLSLSPGERATLSCRASQSVSSYLAWYQQKPGQAPRLLIYDASNRATGIPARFSGSGSGTDFTLTISSLEPEDFAVYYCQQRSNWPWTFGQGTKVEIKR
notes: as for B1
B16: TL1A-0095 (antibody, IgG1, V domains shown)
VH: QVQLVQSGAEVKKPGASVKVSCKASGYDFTYYGISWVRQAPGQGLEWMGWISTYNGNTHYARMLQGRVTMTTDTSTRTAYMELRSLRSDDTAVYYCARETYYGSGAYRGGMDVWGQGTTVTVSS
VL: EIVLTQSPATLSLSPGERATLSCRASQSVSSYLAWYQQKPGQAPRLLIYDASNRATGIPARFSGSGSGTDFTLTISSLEPEDFAVYYCQQRSNWPWTFGQGTKVEIKR
notes: as for B1
B17: TL1A-0084 (antibody, IgG1, V domains shown)
VH: QVQLVQSGAEVKKPGASVKVSCKASGYDFTYYGISWVRQAPGQGLEWMGWASTYNGNTHYARMLQGRVTMTTDTSTRTAYMELRSLRSDDTAVYYCARENYYGSGAYRGGMDVWGQGTTVTVSS
VL: EIVLTQSPATLSLSPGERATLSCRASQSVSSYLAWYQQKPGQAPRLLIYDASNRATGIPARFSGSGSGTDFTLTISSLEPEDFAVYYCQQRSNWPWTFGQGTKVEIKR
notes: as for B1

The target of this experiment is T1, recombinant human TL1A (human, UniProt O95150 71-251).
T1 construct: homotrimer; biotinylated for SPR capture; the ELISA paragraphs say only 'recombinant TL1A'; also called TNFSF15
T1 chain: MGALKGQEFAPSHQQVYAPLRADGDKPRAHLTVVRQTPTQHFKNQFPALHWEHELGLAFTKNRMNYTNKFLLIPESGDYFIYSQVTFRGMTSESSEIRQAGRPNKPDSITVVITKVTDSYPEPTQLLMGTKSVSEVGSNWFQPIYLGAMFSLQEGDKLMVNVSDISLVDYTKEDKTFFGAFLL
The experiment can be described thus: competition ELISA vs bio-TL1A-0002. The procedure: For this competition ELISA assay procedure, 96-well high binding plates (Corning, product number 3590) were coated with 1 μg/mL recombinant TL1A in 100 μL/well in Phospate Buffered Saline (PBS) overnight at 4° C. Plates were then blocked in PBS+0.02% casein solution and washed with PBS+0.05% Tween-20 following standard ELISA protocol. […] Plates were washed with PBS+0.05% Tween-20 following standard ELISA protocol, and Streptavidin-HRP (Southern Biotech, product number 7100-05) diluted to 1:10,000 in assay buffer was added to plates and incubated for 25-30 minutes at room temperature. Next, the plates were washed with PBS+0.05% Tween-20 following standard ELISA protocol, and then TMB substrate (BioFX Laboratories, catalog number TMBW-0100-01) was added to plates. Reactions were stopped after approximately 5 minutes by adding 0.18 M ortho-phosphoric acid to each well and absorbance was read at 450 nm.
For B1, the “Bioactivity relative to TL1A-0002” value was 1.3 fold and the half-inhibitory concentration (IC50) was determined as 5.8 nM.
Take B2: the “Bioactivity relative to TL1A-0002” value is 1.3 fold and the IC50 worked out at 5.9 nM.
Regarding B3, the “Bioactivity relative to TL1A-0002” value worked out at 1 fold and the IC50 was found to be 4.7 nM.
Consider B4, for which the “Bioactivity relative to TL1A-0002” value came out at 1.1 fold and the IC50 was determined as 5 nM.
As for B5, the “Bioactivity relative to TL1A-0002” value stood at 1.2 fold and the IC50 came out at 5.4 nM.
Turning to B6, the “Bioactivity relative to TL1A-0002” value is 0.9 fold and the half-maximal inhibitory concentration (IC50) was found to be 4.1 nM.
For B7, the “Bioactivity relative to TL1A-0002” value came to 1.4 fold and the 50% inhibitory concentration (IC50) was found to be 6.5 nM.
For B8 the same measures were 1.2 fold and 5.4 nM.
For B9 the same measures were 1.2 fold and 5.2 nM.
In the case of B10, the “Bioactivity relative to TL1A-0002” value was determined as 1.2 fold and the IC50 was 5.5 nM.
For the molecule B11, the “Bioactivity relative to TL1A-0002” value was 1 fold and the concentration for half-maximal inhibition (IC50) is 4.5 nM.
With B12, the “Bioactivity relative to TL1A-0002” value was found to be 1.5 fold and the IC50 was 6.8 nM.
As for B13, the “Bioactivity relative to TL1A-0002” value was 1.2 fold and the 50% inhibitory concentration (IC50) is 5.2 nM.
With B14, the “Bioactivity relative to TL1A-0002” value was 1.1 fold and the 50% inhibitory concentration (IC50) came out at 4.8 nM.
Consider B15, for which the “Bioactivity relative to TL1A-0002” value was found to be 1.1 fold and the 50% inhibitory concentration (IC50) stood at 5 nM.
With B16, the “Bioactivity relative to TL1A-0002” value is 2 fold and the IC50 was 8.8 nM.
Consider B17, for which the “Bioactivity relative to TL1A-0002” value worked out at 1 fold and the IC50 is 4.5 nM.
